{"source": "patent US20180371086A1", "about": "(Gilead, published 2018)", "binders": {"B1": {"name": "PGT121.60 hIgG1/hLambda (antibody)", "heavy": "QMQLQESGPGLVKPSETLSLTCSVSGASISDSYWSWIRRSPGKGLEWIGYVHKSGDTNYNPSLKSRVHLSLDTSKNQVSLSLTGVTAADSGKYYCARTLHGRRIYGIVAFNEWFTYFYMDVWGTGTQVTVSSASTKGPSVFPLAPSSKSTSGGTAALGCLVKDYFPEPVTVSWNSGALTSGVHTFPAVLQSSGLYSLSSVVTVPSSSLGTQTYICNVNHKPSNTKVDKKVEPKSCDKTHTCPPCPAPELLAGPDVFLFPPKPKDTLMISRTPEVTCVVVDVSHEDPEVKFNWYVDGVEVHNAKTKPREEQYNSTYRVVSVLTVLHQDWLNGKEYKCKVSNKALPLPEEKTISKAKGQPREPQVYTLPPSREEMTKNQVSLTCLVKGFYPSDIAVEWESNGQPENNYKTTPPVLDSDGSFFLYSKLTVDKSRWQQGNVFSCSVLHEALHSHYTQKSLSLSPGK", "light": "not shown"}}, "assay_in_all_cases": "cell-based or functional assay", "key": {"[1]": {"biological_target": "HIV-1 Env of virus MGRM-AG-007 (HIV-1)"}, "[2]": {"biological_target": "HIV-1 Env of virus MGRM-AG-005 (HIV-1)"}, "[3]": {"biological_target": "HIV-1 Env of virus MGRM-D-014 (HIV-1)"}, "[4]": {"biological_target": "HIV-1 Env of virus MGRM-D-011 (HIV-1)"}, "[5]": {"biological_target": "HIV-1 Env of virus MGRM-D-001 (HIV-1)"}, "[6]": {"biological_target": "HIV-1 Env of virus MGRM-F1-010 (HIV-1)"}, "[7]": {"biological_target": "HIV-1 Env of virus MGRM-F1-018 (HIV-1)"}, "[8]": {"biological_target": "HIV-1 Env of virus MGRM-F1-014 (HIV-1)"}, "[9]": {"biological_target": "HIV-1 Env of virus MGRM-F1-016 (HIV-1)"}, "[10]": {"biological_target": "HIV-1 Env of virus MGRM-F1-012 (HIV-1)"}, "[11]": {"biological_target": "HIV-1 Env of virus MGRM-G-017 (HIV-1)"}, "[12]": {"biological_target": "HIV-1 Env of virus MGRM-G-004 (HIV-1)"}, "[13]": {"biological_target": "HIV-1 Env of virus MGRM-G-013 (HIV-1)"}, "[14]": {"biological_target": "HIV-1 Env of virus MGRM-Chronic-B-004 (HIV-1)"}, "[15]": {"biological_target": "HIV-1 Env of virus MGRM-Acute-B-009 (HIV-1)"}, "[16]": {"biological_target": "HIV-1 Env of virus MGRM-Chronic-B-020 (HIV-1)"}, "[17]": {"biological_target": "HIV-1 Env of virus MGRM-Chronic-B-010 (HIV-1)"}, "[18]": {"biological_target": "HIV-1 Env of virus MGRM-Acute-B-007 (HIV-1)"}, "[19]": {"biological_target": "HIV-1 Env of virus MGRM-Chronic-B-016 (HIV-1)"}, "[20]": {"biological_target": "HIV-1 Env of virus MGRM-Acute-B-001 (HIV-1)"}, "[21]": {"biological_target": "HIV-1 Env of virus MGRM-Acute-B-010 (HIV-1)"}, "[22]": {"biological_target": "HIV-1 Env of virus MGRM-Acute-B-004 (HIV-1)"}, "[23]": {"biological_target": "HIV-1 Env of virus MGRM-Chronic-B-002 (HIV-1)"}, "[24]": {"biological_target": "HIV-1 Env of virus MGRM-Chronic-B-001 (HIV-1)"}, "[25]": {"biological_target": "HIV-1 Env of virus MGRM-Chronic-B-015 (HIV-1)"}, "[26]": {"biological_target": "HIV-1 Env of virus MGRM-Chronic-B-019 (HIV-1)"}, "[27]": {"biological_target": "HIV-1 Env of virus MGRM-C-026 (HIV-1)"}, "[28]": {"biological_target": "HIV-1 Env of virus MGRM-C-011 (HIV-1)"}, "[29]": {"biological_target": "HIV-1 Env of virus MGRM-C-027 (HIV-1)"}, "[30]": {"biological_target": "HIV-1 Env of virus MGRM-C-022 (HIV-1)"}, "[31]": {"biological_target": "HIV-1 Env of virus MGRM-C-008 (HIV-1)"}, "[32]": {"biological_target": "HIV-1 Env of virus MGRM-C-017 (HIV-1)"}, "[33]": {"biological_target": "HIV-1 Env of virus MGRM-C-005 (HIV-1)"}, "[34]": {"biological_target": "HIV-1 Env of virus MGRM-C-016 (HIV-1)"}, "[35]": {"biological_target": "HIV-1 Env of virus MGRM-C-007 (HIV-1)"}, "[36]": {"biological_target": "HIV-1 Env of virus MGRM-C-013 (HIV-1)"}, "[37]": {"biological_target": "HIV-1 Env of virus MGRM-C-020 (HIV-1)"}, "[38]": {"biological_target": "HIV-1 Env of virus MGRM-A-014 (HIV-1)"}, "[39]": {"biological_target": "HIV-1 Env of virus MGRM-A-013 (HIV-1)"}, "[40]": {"biological_target": "HIV-1 Env of virus MGRM-A-003 (HIV-1)"}, "[41]": {"biological_target": "HIV-1 Env of virus MGRM-A-010 (HIV-1)"}, "[42]": {"biological_target": "HIV-1 Env of virus MGRM-AG-006 (HIV-1)"}}}
{"binder": "B1", "values": [{"measurement": "PGT121.60 IC50", "setting": "[1]", "result": 0.108, "unit": "µg/mL"}, {"measurement": "PGT121.60 IC50", "setting": "[2]", "result": 0.203, "unit": "µg/mL"}, {"measurement": "PGT121.60 IC50", "setting": "[3]", "result": 0.0019, "unit": "µg/mL"}, {"measurement": "PGT121.60 IC50", "setting": "[4]", "result": 0.0043, "unit": "µg/mL"}, {"measurement": "PGT121.60 IC50", "setting": "[5]", "result": 0.431, "unit": "µg/mL"}, {"measurement": "PGT121.60 IC50", "setting": "[6]", "result": 0.0125, "unit": "µg/mL"}, {"measurement": "PGT121.60 IC50", "setting": "[7]", "result": 0.0201, "unit": "µg/mL"}, {"measurement": "PGT121.60 IC50", "setting": "[8]", "result": 0.0509, "unit": "µg/mL"}, {"measurement": "PGT121.60 IC50", "setting": "[9]", "result": 0.522, "unit": "µg/mL"}, {"measurement": "PGT121.60 IC50", "setting": "[10]", "result": 1.19, "unit": "µg/mL"}, {"measurement": "PGT121.60 IC50", "setting": "[11]", "result": 0.0255, "unit": "µg/mL"}, {"measurement": "PGT121.60 IC50", "setting": "[12]", "result": 0.046, "unit": "µg/mL"}, {"measurement": "PGT121.60 IC50", "setting": "[13]", "result": 1.5, "unit": "µg/mL"}, {"measurement": "PGT121.60 IC50", "setting": "[14]", "result": 0.0013, "unit": "µg/mL"}, {"measurement": "PGT121.60 IC50", "setting": "[15]", "result": 0.0016, "unit": "µg/mL"}, {"measurement": "PGT121.60 IC50", "setting": "[16]", "result": 0.0018, "unit": "µg/mL"}, {"measurement": "PGT121.60 IC50", "setting": "[17]", "result": 0.0074, "unit": "µg/mL"}, {"measurement": "PGT121.60 IC50", "setting": "[18]", "result": 0.0255, "unit": "µg/mL"}, {"measurement": "PGT121.60 IC50", "setting": "[19]", "result": 0.0283, "unit": "µg/mL"}, {"measurement": "PGT121.60 IC50", "setting": "[20]", "result": 0.0313, "unit": "µg/mL"}, {"measurement": "PGT121.60 IC50", "setting": "[21]", "result": 0.0328, "unit": "µg/mL"}, {"measurement": "PGT121.60 IC50", "setting": "[22]", "result": 0.0497, "unit": "µg/mL"}, {"measurement": "PGT121.60 IC50", "setting": "[23]", "result": 0.0649, "unit": "µg/mL"}, {"measurement": "PGT121.60 IC50", "setting": "[24]", "result": 0.0985, "unit": "µg/mL"}, {"measurement": "PGT121.60 IC50", "setting": "[25]", "result": 0.185, "unit": "µg/mL"}, {"measurement": "PGT121.60 IC50", "setting": "[26]", "result": 0.199, "unit": "µg/mL"}, {"measurement": "PGT121.60 IC50", "setting": "[27]", "result": 0.0004, "unit": "µg/mL"}, {"measurement": "PGT121.60 IC50", "setting": "[28]", "result": 0.0012, "unit": "µg/mL"}, {"measurement": "PGT121.60 IC50", "setting": "[29]", "result": 0.0038, "unit": "µg/mL"}, {"measurement": "PGT121.60 IC50", "setting": "[30]", "result": 0.0038, "unit": "µg/mL"}, {"measurement": "PGT121.60 IC50", "setting": "[31]", "result": 0.0044, "unit": "µg/mL"}, {"measurement": "PGT121.60 IC50", "setting": "[32]", "result": 0.0058, "unit": "µg/mL"}, {"measurement": "PGT121.60 IC50", "setting": "[33]", "result": 0.0078, "unit": "µg/mL"}, {"measurement": "PGT121.60 IC50", "setting": "[34]", "result": 0.0137, "unit": "µg/mL"}, {"measurement": "PGT121.60 IC50", "setting": "[35]", "result": 0.199, "unit": "µg/mL"}, {"measurement": "PGT121.60 IC50", "setting": "[36]", "result": 12.3, "unit": "µg/mL"}, {"measurement": "PGT121.60 IC50", "setting": "[37]", "result": 14.9, "unit": "µg/mL"}, {"measurement": "PGT121.60 IC50", "setting": "[38]", "result": 0.001, "unit": "µg/mL"}, {"measurement": "PGT121.60 IC50", "setting": "[39]", "result": 0.0561, "unit": "µg/mL"}, {"measurement": "PGT121.60 IC50", "setting": "[40]", "result": 0.0865, "unit": "µg/mL"}, {"measurement": "PGT121.60 IC50", "setting": "[41]", "result": 0.745, "unit": "µg/mL"}, {"measurement": "PGT121.60 IC50", "setting": "[42]", "result": 0.0106, "unit": "µg/mL"}]}
